The record followed here is patent US20100260853A1 (published 2010).

In one assay the target is GLP receptor. The assay can be described thus: cell-based or functional assay.
The target in assay [1] is T1, human IL-13 (human, UniProt P35225 35-146, limits assumed, biotinylated in the binding ELISA and on the Biacore chip).
T1 construct: also called hIL-13; Hu IL-13
The assay is described as follows: 'Binding Assay' on hIL-13 as headed in Table 12; PARI LC*, reservoir sample at 15 mins.

The target in assay [2] is T1, human IL-13. The assay is described as follows: cell-based or functional assay.
Assay [3] concerns the target T2, cynomolgous IL-13 (cynomolgous, UniProt Q0PW92 19-132, Presumably biotinylated for capture on the streptavidin (SA) chip; biotinylation sites not stated.). The assay can be described thus: cell-based or functional assay.
The target of assay [4] is T1, human IL-13. The assay is described as follows: 'Binding Assay' on hIL-13 as headed in Table 12; 20 mg/ml in PBS, before nebulisation.
Assay [5] deals with T1, human IL-13. The assay can be described thus: 'Binding Assay' on hIL-13 as headed in Table 12; PARI LC*, reservoir sample at 3 mins.
The target of assay [6] is T2, cynomolgous IL-13. The assay is described as follows: Biacore, about 100 RU cynomolgous IL-13 on SA chip, dAb in flow. In general terms: SPR reads the build-up and loss of mass on a sensor chip optically.
Assay [7] concerns the target T1, human IL-13. The assay is described as follows: 'Binding Assay' on hIL-13 as headed in Table 12; PARI LC*, aerosol sample at 15 mins.
Assay [8] has as its target T1, human IL-13. The assay can be described thus: 'Binding Assay' on hIL-13 as headed in Table 12; PARI LC*, aerosol sample at 29 mins.
For assay [9], the target named is T1, human IL-13. The assay is described as follows: 'Binding Assay' on hIL-13 as headed in Table 12; PARI LC*, reservoir sample at 29 mins.
The target in assay [10] is T1, human IL-13. The assay can be described thus: Biacore, about 100 RU biotinylated human IL-13 on SA chip, dAb in flow.
For assay [11], the target named is T1, human IL-13. The assay is described as follows: binding ELISA: biotinylated human IL-13 on NeutrAvidin plate, bound dAb detected with anti-human Ig (VH specific). Background: An ELISA detects its analyte on a solid surface through an enzyme-linked reagent.
The target of assay [12] is T1, human IL-13. The assay can be described thus: 'Binding Assay' on hIL-13 as headed in Table 12; PARI LC*, aerosol sample at 3 mins.
In assay [13] the target is T1, human IL-13. The assay can be described thus: sandwich ELISA: dAb mixed with hIL-13, capture and detection by mouse anti-human IL-13 antibodies, OD450.
Assay [14] deals with T1, human IL-13. The assay can be described thus: cell-based or functional assay. The source holds these as a separate data set.
The target in assay [15] is T2, cynomolgous IL-13. The assay is described as follows: cell-based or functional assay. The source holds these as a separate data set.
Assay [16] has as its target T1, human IL-13. The assay can be described thus: sandwich ELISA on hIL-13; 2.6 mg/mL in PBS, E-flow, aerosolized material.
For assay [17], the target named is T1, human IL-13. The assay is described as follows: sandwich ELISA on hIL-13; 4.7 mg/mL in phosphate/PEG1000/sucrose, LC+, aerosolized material.
Assay [18] has as its target T1, human IL-13. The assay can be described thus: sandwich ELISA on hIL-13; 2.3 mg/mL in phosphate/PEG1000/sucrose, LC+, aerosolized material.
In assay [19] the target is T1, human IL-13. The assay is described as follows: sandwich ELISA on hIL-13; 2.6 mg/mL in PBS, LC+, material remaining in cup.
In assay [20] the target is T1, human IL-13. The assay can be described thus: sandwich ELISA on hIL-13; 2.6 mg/mL in PBS, E-flow, material remaining in cup.
The target in assay [21] is T1, human IL-13. The assay can be described thus: sandwich ELISA on hIL-13; 2.6 mg/mL in PBS, LC+, aerosolized material.
In assay [22] the target is T1, human IL-13. The assay is described as follows: sandwich ELISA on hIL-13; material in 1xPBS, not nebulised.
Assay [23] concerns the target T1, human IL-13. The assay is described as follows: sandwich ELISA on hIL-13; 2.3 mg/mL in phosphate/PEG1000/sucrose, LC+, material remaining in cup.
The target of assay [24] is T1, human IL-13. The assay can be described thus: sandwich ELISA on hIL-13; 2.3 mg/mL in phosphate/PEG1000/sucrose, E-flow, aerosolized material.
The target of assay [25] is T1, human IL-13. The assay can be described thus: sandwich ELISA on hIL-13; 4.7 mg/mL in phosphate/PEG1000/sucrose, E-flow, material remaining in cup.
In assay [26] the target is T1, human IL-13. The assay can be described thus: sandwich ELISA on hIL-13; 4.7 mg/mL in phosphate/PEG1000/sucrose, E-flow, aerosolized material.
For assay [27], the target named is T1, human IL-13. The assay can be described thus: sandwich ELISA on hIL-13; 4.7 mg/mL in phosphate/PEG1000/sucrose, LC+, material remaining in cup.

Values joined by “and” are separate entries in the source; they are usually repeats but may differ in a detail not shown here. Equal entries are not always repeated.

T2 sequence (Q0PW92 entry or part of it limits assumed, form in doubt): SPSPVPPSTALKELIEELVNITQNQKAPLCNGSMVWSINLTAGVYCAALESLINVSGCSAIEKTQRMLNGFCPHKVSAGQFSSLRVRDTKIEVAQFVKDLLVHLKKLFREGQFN

Take “Exendin 4 (G4S)3 DOM7h-14 fusion (DAT0115) (from UniProt P26349)”: in the assay with GLP receptor, the DAT01 cell assay EC50, CHO 6CRE/luciferase reporter (sample: DAT0115 LC+ aerosol 3 mins) came to 0.296 nM; the DAT01 cell assay EC50, CHO 6CRE/luciferase reporter (sample: DAT0115 LC+ aerosol 15 mins) worked out at 0.316 nM; the DAT01 cell assay EC50, CHO 6CRE/luciferase reporter (sample: DAT0115 LC+ aerosol 29 mins) was 0.142 nM; the DAT01 cell assay EC50, CHO 6CRE/luciferase reporter (sample: DAT0115 LC+ cup 3 mins) turned out to be 0.725 nM. In the assay with GLP receptor, the DAT01 cell assay EC50, CHO 6CRE/luciferase reporter (sample: DAT0115 LC+ cup 15 mins) was found to be 0.453 nM; the DAT01 cell assay EC50, CHO 6CRE/luciferase reporter (sample: DAT0115 LC+ cup 29 mins) was found to be 0.445 nM; the DAT01 cell assay EC50, CHO 6CRE/luciferase reporter (sample: DAT0115 T0) was found to be 0.178 nM; the DAT01 cell assay EC50, CHO 6CRE/luciferase reporter (sample: DAT0115 e-Flow aerosol 3 mins) was 0.798 nM. In addition, the DAT01 cell assay EC50, CHO 6CRE/luciferase reporter (sample: DAT0115 e-Flow cup 3 mins) with GLP receptor amounted to 0.535 nM.

B1: DOM10-275-78 (other)
chain: EVQLLESGGGLVQPGGSLRLSCVASGFTFDVAEMDWVRQAPGKGLEWVSTISPSRRGTYYADSVKGRFTISRDNSKNTLYLQMNSLRAEDTAVYYCAKAYTGRSLWGPGTLVTVSS
B1: the IC50 (usually the concentration that gives 50% inhibition) with human IL-13 [1] was found to be 1.2 nM. For the same molecule, in the assay with human IL-13 [2], the “HEK cell assay EC50, Hu IL-13 (sample: DOM10-275-78 aerosol 3 mins)” value worked out at 1.8 nM; the “HEK cell assay EC50, Hu IL-13 (sample: DOM10-275-78 aerosol 15 mins)” value was 1.01 nM; the “HEK cell assay EC50, Hu IL-13 (sample: DOM10-275-78 aerosol 29 mins)” value was 0.62 nM; the “HEK cell assay EC50, Hu IL-13 (sample: DOM10-275-78 cup 3 mins)” value amounted to 1.45 nM. Also, in the assay with human IL-13 [2], the “HEK cell assay EC50, Hu IL-13 (sample: DOM10-275-78 cup 15 mins)” value stood at 2.18 nM; the “HEK cell assay EC50, Hu IL-13 (sample: DOM10-275-78 cup 29 mins)” value was 0.48 nM; the “HEK cell assay EC50, Hu IL-13 (sample: DOM10-275-78 start)” value is 0.58 nM. In addition, in the assay with cynomolgous IL-13 [3], the “HEK cell assay EC50, Cyno IL-13 (sample: DOM10-275-78 aerosol 3 mins)” value was found to be 0.99 nM; the “HEK cell assay EC50, Cyno IL-13 (sample: DOM10-275-78 aerosol 15 mins)” value was 0.95 nM; the “HEK cell assay EC50, Cyno IL-13 (sample: DOM10-275-78 aerosol 29 mins)” value came to 0.74 nM; the “HEK cell assay EC50, Cyno IL-13 (sample: DOM10-275-78 cup 3 mins)” value worked out at 1.77 nM. For the same molecule, in the assay with cynomolgous IL-13 [3], the “HEK cell assay EC50, Cyno IL-13 (sample: DOM10-275-78 cup 15 mins)” value was 1.52 nM; the “HEK cell assay EC50, Cyno IL-13 (sample: DOM10-275-78 cup 29 mins)” value came out at 0.74 nM; the “HEK cell assay EC50, Cyno IL-13 (sample: DOM10-275-78 start)” value was determined as 0.93 nM. This molecule came in with a 50% inhibitory concentration (IC50) with human IL-13 [4] of 1.2 nM. Also, the IC50 in the assay with human IL-13 [5] was 1.1 nM. The Kd (as a rule, the constant that tells how readily two partners part at equilibrium) with cynomolgous IL-13 [6] fell in the range of 0.32 to 0.75 nM. This molecule also registered an IC50 with human IL-13 [7] of 1 nM. In the assay with human IL-13 [8], this molecule displayed a concentration for half-maximal inhibition (IC50) of 1.1 nM. In addition, in the assay with human IL-13 [9], the IC50 is 1.1 nM. In the assay with human IL-13 [10], this molecule showed a Kd of 0.072 to 0.1 nM. Also, in the assay with human IL-13 [11], the EC50 – broadly, the concentration that produces a half-maximal response – is 1.3 nM. Moreover, the IC50 with human IL-13 [12] was found to be 1.1 nM. The molecule also came in with an EC50 with human IL-13 [13] of 3.33 nM. The “HEK assay hIL-13 EC50 (HEK293 STAT6 SEAP reporter, 6 ng/ml IL-13)” value with human IL-13 [14] came out at 2.5 nM. Further, in the assay with cynomolgous IL-13 [15], the “HEK assay cIL-13 EC50 (HEK293 STAT6 SEAP reporter)” value worked out at 1.4 nM.

B2: DOM10-53-474 (other)
chain: GVQLLESGGGLVQPGGSLRLSCAASGFTFAWYDMGWVRQAPGKGLEWVSSIDWHGEVTYYADSVKGRFTISRDNSKNTLYLQMNSLRAEDTAVYYCATAEDEPGYDYWGQGTLVTVSS
Turning to B2, the IC50 is 0.0351 nM with human IL-13 [16]; 0.0149 nM with human IL-13 [17]; 0.0348 nM with human IL-13 [18]; 0.0339 nM with human IL-13 [19]; 0.0224 nM in the assay with human IL-13 [20]; 0.023 nM in the assay with human IL-13 [21]. Moreover, the 50% inhibitory concentration (IC50) with human IL-13 [22] is 0.0458 nM and 0.0356 nM and 0.0289 nM and 0.0269 nM; with human IL-13 [23], 0.0317 nM; with human IL-13 [24], 0.0322 nM; with human IL-13 [25], 0.0214 nM; in the assay with human IL-13 [26], 0.0185 nM; in the assay with human IL-13 [27], 0.0129 nM. Further, the “HEK cell assay EC50, Hu IL-13 (sample: DOM10-53-474 standard)” value with human IL-13 [2] stood at 0.62 nM. Besides, the “HEK cell assay EC50, Cyno IL-13 (sample: DOM10-53-474 standard)” value with cynomolgous IL-13 [3] was 15.2 nM. Also, the dissociation constant Kd with cynomolgous IL-13 [6] turned out to be 2 nM; with human IL-13 [10], 0.028 nM. The 50% effective concentration (EC50) is 1.08 nM with human IL-13 [11] and 0.057 nM with human IL-13 [13]. Further, the “HEK assay hIL-13 EC50 (HEK293 STAT6 SEAP reporter, 6 ng/ml IL-13)” value in the assay with human IL-13 [14] is 0.63 nM. The “HEK assay cIL-13 EC50 (HEK293 STAT6 SEAP reporter)” value with cynomolgous IL-13 [15] was 11.1 nM.
